# According to patent publication US9884122B2, “Small molecule drug conjugates” (Philochem AG, priority 2014, dated 2018):
# Columns and labels:
# [1] = test system: subcutaneous SKRC52 tumors; experiment: Analysis of tumor penetration by fluorescence microscopy; type: in vivo, mouse; settings: 50 nmol intravenous; for tumor staining / penetration by fluorescence microscopy: Alexa546 probes
# Procedure: After warming to −20° C., samples were cut into sections of 10 μm width and directly imaged on an Axioskop 2 fluorescence microscope (Zeiss).
# [2] = molecular target: T1, recombinant carbonic anhydrase IX (Homo sapiens, UniProt Q16790); experiment: biochemical; type: binding
# T1 construct: Recombinant CAIX was expressed as described previously; made in house
# Procedure: The FP was measured on a Spectra Max Paradigm multimode plate reader (Molecular Devices). Experiments were performed in triplicate and data analyzed as described by Wang and co-workers.^[4]
# [3] = Stability in mouse plasma/serum at 37 C; type: in vitro ADME
# Procedure: (§1) Targeted carbonate or carbamate 7a or 8a (30 μg) was dissolved in PBS pH 7.4 (1.5 mL) and incubated at 37° C. under gentle agitation. Aliquots (100 μL) were removed at different time points and diluted 1:1 with an internal standard of etodolac (TCI Chemicals) in MeOH (20 μg mL^−1). Small molecules were separated from salts using an Oasis WAX online sample preparation column (Waters) on an Alliance HT separation module (50 μL injections, 0.3 mL min^−1 0.1% aq. HCOOH for 3 min followed by 0.3 mL min^−1 MeCN for 7 min, Waters) and analyzed by mass spectrometry/mass spectrometry (MS/MS) on a Quattro API spectrometer (Waters) monitoring appropriate multiple reaction monitoring (MRM) transitions for 8a, 8b and etodolac as standard. Measurements were performed in triplicate, peaks integrated and the fraction of intact test compounds calculated as fraction of signal at time t divided by signal at time zero. Since signals due to etodolac were constant over time a further correction using the internal standard as reference was omitted. For stability measures in mouse serum, compounds were dissolved in freshly thawed mouse plasma (Invitrogen), aliquots taken at different time points and diluted with an equal volume of MeCN. After vigorous vortexting for 1 min, protein precipitate was spun down and the supernatant analyzed as above.
# Targeted DM1 conjugate 9a (230 μg, 140 nmol) was dissolved in PBS pH 7.4 (1 mL) and incubated at 37° C. under gentle agitation. Aliquots (100 μL) were removed at different time points and diluted 1:1 with an internal standard solution of etodolac (TCI Chemicals) in MeCN (20 μg mL^−1). Water (600 μL) was added and aliquots of this mixture (50 μL) analyzed over a Syngergi RP Polar column (150×4.6 mm, 4 μm, Phenomenex) on an Alliance HT separation module (1 mL min^−1 5% MeCN in 0.1% aqueous TFA to 100% MeCN over 20 min, Waters). Analytes were detected using a Water 2996 photo array UV/VIS detector (Waters). Measurements were performed in triplicate, peaks integrated and the fraction of intact test compounds calculated as fraction of signal at time t divided by signal at time zero. Since signals due to etodolac were constant over time a further correction using the internal standard as reference was omitted. For stability measures in mouse serum, compounds were dissolved in freshly thawed mouse plasma (Invitrogen), aliquots taken at different time points and diluted with an equal volume of MeCN. After vigorous vortexting for 1 min, protein precipitate was spun down and the supernatant analyzed as above.
# [4] = Hydrolytic stability in PBS pH 7.4 at 37 C (MS/MS or HPLC); type: physicochemical; set-up: half-life: dose or concentration left out as unconfirmed; settings: PBS pH 7.4, 37° C.; for half-life: read-out: t1/2 in PBS (converted)
# Procedure: as §1
# Targeted DM1 conjugate 9a (230 μg, 140 nmol) was dissolved in PBS pH 7.4 (1 mL) and incubated at 37° C. under gentle agitation. […] Water (600 μL) was added and aliquots of this mixture (50 μL) analyzed over a Syngergi RP Polar column (150×4.6 mm, 4 μm, Phenomenex) on an Alliance HT separation module (1 mL min^−1 5% MeCN in 0.1% aqueous TFA to 100% MeCN over 20 min, Waters). Analytes were detected using a Water 2996 photo array UV/VIS detector (Waters). Measurements were performed in triplicate, peaks integrated and the fraction of intact test compounds calculated as fraction of signal at time t divided by signal at time zero. […] After vigorous vortexting for 1 min, protein precipitate was spun down and the supernatant analyzed as above.
# [5] = Estimation of the recommended therapy dose (tolerability); type: in vivo, mouse; settings: for tolerated dose: nude mice, one mouse per regimen
# Procedure: Estimation of the recommended therapy dose of a) 7a and b) 8a in nude mice was performed by studying different dosages using a schedule of five injections on five consecutive days compared to vehicle (5% DMSO in PBS pH 7.4). The dosage regimens were 0.4 nmol/day, 1.3 nmol/day, 4.0 nmol/day and 13.3 nmol/day. One mouse was used for each regimen.
# Estimation of the recommended therapy dose and schedule of DM1 conjugate 9a was studied in SKRC52 tumor bearing nude mice. One mouse was used for testing each dosing scheme. Injections were given daily starting on day 0 in 5% DMSO in PBS pH 7.4 (150 μL). […] Since the animals in this study weighed on average 18% less than those used in the therapy study, a dose of 70 nmol per injection was used for the therapy experiment.
# [6] = test system: SKRC52 xenograft tumors; settings: for tumor growth effect: 5 doses of 4 nmol on 5 consecutive days, 7a vs vehicle p<0.0001, vs 7b plus AAZ p<0.05
# Procedure: SKRC52 xenograft tumors were implanted into balb/c nu/nu mice (Charles River) as described above. […] 5 doses of 4 nmol 7a,b, 8a,b or 7 doses of 70 nmol 9a,b each in PBS pH 7.4 (150 μL) containing 5% DMSO were given on 5 or 7 consecutive days and one group was treated with vehicle (5% DMSO in PBS pH 7.4). In the case of 7-9b an equimolar amount of AAZ was added to the injection solution to control for a possible antitumor activity of CAIX inhibitors. Sorafenib and sunitnib were administered at a standard dose of 30 mg/kg as described previously.^[5] Animals were weighed and tumor sizes measured daily and the tumor volume calculated according to the formula (long side)×(short side)^2×0.5. […] Prism 6 (GraphPad Software) was used for data analysis (regular two-way ANOVA with the Bonferroni test).
# [7] = test system: CAIX expressing SKRC52 cells; experiment: In vitro cytotoxicity assay (MTS); type: cell-based, human; settings: Condition (b): 1 h exposure, wash, then 72 h; concentrations up to 300 nM
# Procedure: SKRC52 or A549 cells were seeded in 96-well plates in their appropriate culture medium (100 μL) at a density of 5000 cells per well and allowed to grow for 24 h. The medium was replaced with medium containing different concentrations of test substance (100 μL, 300 nM-15 pM in 1:3 dilution steps) and plates were either:
# (a) incubated for 72 hours in the presence of the toxic substance, or
# (b) incubated for 1 h under standard culture conditions, followed by removal of the medium containing the toxic substance, gently washing the cells fresh medium once and adding new medium (100 μL) and incubating for 72 h under culture conditions.
# MTS cell viability dye (20 μL, Promega) was added, the plates were incubated for 1 h under culture conditions and the absorbance at 490 nm measured on a Spectra Max Paradigm multimode plate reader (Molecular Devices). Experiments were performed in triplicate and average cell viability calculated as measured background corrected absorbance divided by the absorbance of untreated control wells. EC50 values were determined by fitting data to the four-parameter logistic equation.
# [8] = test system: CAIX expressing SKRC52 cells; experiment: Ligand binding analysis by flow cytometry, SKRC52; type: cell-based, human; settings: 30 nM dye conjugate, 1 h at 0° C., washed
# Procedure: Cells were detached from culture plates using a 50 mM EDTA solution in phosphate buffered saline (PBS) pH 7.4, counted and suspended to a final concentration of 1.5×10^6 cells mL^−1 in a 1% v/v solution of FCS in PBS pH 7.4. Aliquots of 3×10^5 cells (200 μL) were spun down and resuspended in solutions of IRDye750 (Licor) labeled ligands (30 nM) in a 1% v/v solution of FCS in PBS pH 7.4 (200 μL) and incubated on ice for 1 h. Cells were washed once with 200 μL 1% v/v solution of FCS in PBS pH 7.4 (200 μL), spun down, resuspended in 1% v/v solution of FCS in PBS pH 7.4 (300 μL) and analyzed on a FACS Canto flow cytometer (BD Bioscience). FlowJo Version 8.7 (Treestar) was used for data analysis and visualization. Results were as follows: • (1) Flow cytometry analysis of binding of ligand-IRDye750 conjugates 1c-6c (FIG. 1) to CAIX expressing SKRC52 cells.
# Flow cytometry was performed as described above with monovalent and bivalent near infrared dye conjugates B3 and B4 and negative control conjugates lacking the ligand on CAIX-positive SKRC52 cells and CAIX-negative HEK cells^5.
# [9] = test system: subcutaneous SKRC52 tumors
# Procedure: SKRC52 cells were grown to 80% confluence and detached with Trypsin-EDTA 0.05% (Invitrogen). Cells were washed with PBS pH 7.4 once, counted and resuspended in PBS to a final concentration of 6.7×10^7 cells mL^−1. Athymic balb/c nu/nu mice, 8-10 weeks of age (Charles River) were anesthetized with isofluorane and aliquots of 1×10^7 cells (150 μL of suspension) injected subcutaneously into their lower back.
# Food and water was given ad libitum during that period.
# Mice were subsequently sacrificed by cervical dislocation.
# [10] = five injections on five consecutive days
# [11] = 7×70 nmol on 7 consecutive days
compound,measurement,setting,value
"N1-(2-(2-(2-aminoethoxy)ethoxy)ethyl)-N4-(5-sulfamoyl-1,3,4-thiadiazol-2-yl)succinamide Alexa546 conjugate [Compound 1b]",fluorescence in organs by microscopy,[1],strong fluorescence due to 1b inside the tumor and the intestine
same,tumor staining / penetration by fluorescence microscopy,[1],staining of the tumor with 1b is initially highest in well-perfused areas
"COc1cc2[nH]cc(C(=O)N3C[C@@H](CCl)c4c3cc(OC(=O)N(C)CCSSC[C@H](NC(=O)[C@H](CC(=O)O)NC(=O)[C@H](CCCNC(=N)N)NC(=O)[C@H](CC(=O)O)NC(=O)CCCCn3cc(CCCC(=O)Nc5nnc(S(N)(=O)=O)s5)nn3)C(=O)O)c3ccccc43)c2cc1OCCN(C)C [Compound 8a, AAZ Targeted CBI Carbamate]",Kd,[2],40.3 ± 2.6 nM
same,binding affinity for recombinant CAIX in vitro (in words),[2],retain binding affinity for recombinant CAIX in vitro
same,half-life,"[3]; plasma, MS/MS, errors <1 min, read-out: Half lives in mouse plasma",1.02 h
same,half-life,"[3]; serum, read-out: t1/2 in mouse serum in vitro",1.02 h
same,half-life,[4]; buffer,> 24 h
same,tolerated dose,[5]; [10],≤ 13.3 nmol/day
same,tumor growth effect,[6],did not lead to any retardation in tumor growth
tert-butyl (2-(2-(2-aminoethoxy)ethoxy)ethyl)carbamate Alexa546 conjugate [Compound 6b],tumor staining / penetration by fluorescence microscopy,[1],cannot be detected inside the tumor
"COc1cc2[nH]cc(C(=O)N3C[C@@H](CCl)c4c3cc(OC(=O)OCCSSC[C@H](NC(=O)[C@H](CC(=O)O)NC(=O)[C@H](CCCNC(=N)N)NC(=O)[C@H](CC(=O)O)NC(=O)CCCCn3cc(CCCC(=O)Nc5nnc(S(N)(=O)=O)s5)nn3)C(=O)O)c3ccccc43)c2cc1OCCN(C)C [Compound 7a, AAZ Targeted CBI Carbonate]",Kd,[2],7.3 ± 0.5 nM
same,binding affinity for recombinant CAIX in vitro (in words),[2],retain binding affinity for recombinant CAIX in vitro
same,EC50,[7],0.7 ± 0.1 nM
same,half-life,"[3]; mouse plasma, MS/MS, errors <1 min, read-out: Half lives in mouse plasma",0.717 h
same,half-life,"[3]; mouse serum, read-out: t1/2 in mouse serum in vitro",0.717 h
same,half-life,[4],15 h
same,tolerability at 13.3 nmol/day,[5]; [10],poorly tolerated
same,tolerated dose,[5]; [10],up to 4.0 nmol/day
same,tumor growth effect,[6],statistically significant tumor growth retardation
"COc1cc2cc(c1Cl)N(C)C(=O)C[C@H](OC(=O)[C@H](C)N(C)C(=O)CCSSC[C@H](NC(=O)[C@H](CC(=O)O)NC(=O)[C@H](CCCNC(=N)N)NC(=O)[C@H](CC(=O)O)NC(=O)CCCCn1cc(CCCC(=O)Nc3nnc(S(N)(=O)=O)s3)nn1)C(=O)O)[C@@]1(C)O[C@H]1[C@H](C)[C@@H]1C[C@@](O)(NC(=O)O1)[C@H](OC)/C=C/C=C(\C)C2 [Compound 9a, Targeted DM1 Conjugate]",Kd,[2],26.5 ± 2.5 nM
same,binding affinity for recombinant CAIX in vitro (in words),[2],retain binding affinity for recombinant CAIX in vitro
same,half-life,"[3]; mouse serum, HPLC, read-out: t1/2 in mouse serum (converted)",20 h
same,decomposition in PBS (in words),[4]; HPLC,No decomposition was observed
same,tolerability of six doses of 60 nmol,"[5]; daily injections, SKRC52 tumor bearing nude mice",tolerated with only minimal weight loss
same,anti-tumor effect,[6]; [11],potent anti-tumor effect
same,time after start of treatment at which tumors started regrowing,[6]; [11],20 days
same,toxicity (body weight),[6]; [11],no detectable body weight loss
"CC(C)(C)OC(=O)NCCOCCOCCNC(=O)CCCCc1ccc(C2=C(/C=C/C3=[N+](CCCCS(=O)(=O)O)c4ccc(S(=O)(=O)O)cc4C3(C)C)CCC/C2=C\C=C2\N(CCCCS(=O)(=O)O)c3ccc(S(=O)(=O)[O-])cc3C2(C)C)cc1 [Compound 6c, reference compound]",binding to SKRC52 cells (fluorescence shift),[8],only shows little residual binding
same,tumor targeting by near infrared imaging,"[9]; 3 nmol intravenous, 1-12 h",does not reach the tumor
same,accumulation in extracted tumor and organs (imaging),"[9]; mouse, in vivo",very little tumor or organ accumulation
